From patent US20120237518A1
pKd: −log10 of the molar value.

Molecular target: recombinant human Trop-2/Fc/His fusion protein (manufactured by R&D) (human) (UniProt P09758)
Experiment: SPR (Biacore T100), Trop-2/Fc/His captured by Tetra-His antibody on CM5 chip, antibody as analyte, Bivalent Analyte model, mean of duplicates

Chain of recombinant human Trop-2/Fc/His fusion protein (manufactured by R&D) (human) (P09758 27-274 limits assumed): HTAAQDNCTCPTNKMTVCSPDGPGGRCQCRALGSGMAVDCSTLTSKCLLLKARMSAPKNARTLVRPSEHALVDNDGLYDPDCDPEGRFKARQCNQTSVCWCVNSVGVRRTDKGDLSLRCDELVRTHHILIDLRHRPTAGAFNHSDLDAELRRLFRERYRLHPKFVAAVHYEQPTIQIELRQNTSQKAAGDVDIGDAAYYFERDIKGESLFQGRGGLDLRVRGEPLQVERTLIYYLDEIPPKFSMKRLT

Row | Substance | pKd | koff | kon
1 | 77220 (manufactured by R&D), anti-Trop-2 mouse monoclonal antibody | 8.96 | 0.00061 s⁻¹ | 555000 M⁻¹ s⁻¹
2 | MOv16 (manufactured by Alexis), anti-Trop-2 mouse monoclonal antibody | 9.03 | 0.000184 s⁻¹ | 183000 M⁻¹ s⁻¹
